This data set is described as follows: label from the status in PepcDB records.
For “MASRPSVRHPSHNHPLRGHKAQVEDEIICSGCDLDLLGAYFKCTKSECDYFLHKSCFDLPREIRHKSHPDHPLILLYSPQNNNSTYTCDACGEYGSGFTYNCSICQYDVHVGCVSVPETMKHDEHVHPLALIYKAPCPKDHIFTCDVCDETMPHNLWLYYCQKCDYGAHLHSCVAEEEEKSKKGGRGRGGEGGSGGNGVNRGRSSANSELAAMLKAQREMEQMQIALHLEMQRAKIDKKSRKHMLKMI”, the protein production entry was “failed”. The entry for “MGLEQAVVDFFNHMGLLNLTVGNVVMIIVGLTLVYLAIRYEMEPLLLLPIGISAVLVNLPLSHMANWPLAPQLPPEIQENIFATISYLSQQYGPPGLFDLIYYLLIKTEVVPLLIFFGLGAMTDFGPMIADPKTALLGAAAQIGVFVAMLVALALGFNLKEAASIGIIGGADGPTTIYLTTKLAPHILSATAVAAYSYMSLVPLIQPPVIKALTTPEERRIRMEQLRPVSKREKILFPIASMIVIGLLVPSAAPLIGMLMIGNLFRESGVVQRLSKAAQEELMNIVTIFLGLGIGSTMRAESFLTPKTLMILALGVVAFASATAGGVLFGKIMMKISGGKINPMIGAAGVSAVPMSARVVQRLASEEDPGNFILMHAMGPNVAGVIGTAVVAGVFLSALG” is “failed”; for “MNFEGIIIAAISFFIIGIFHPIVIKLEYYLTKNIWPLFLILGIIFIIISLFQKQTVAAAIMGIIGATCIWSIKEIFEQEKRVQKGWFPKNPRKK” it is “failed”. For “MKPIHVGLLGLGTVGGGTLTVLRRNAEEITRRAGREIRVVRAAVRNLDKAEALAGGLPLTTNPFDVVDDPEIDIVVELIGGLEPARELVMQAIANGKHVVTANKHLVAKYGNEIFAAAQAKGVMVTFEAAVAGGIPIIKALREGLTANRIEWLAGIINGTSNFILSEMRDKGAAFDDVLKEAQRLGYAEADPTFDIEGIDAAHKLTILSAIAFGIPMQFERAYTEGISQLTREDVRYAEELGYRIKLLGIARRAENGIELRVHPTLIPERRLIANVDGAMNAVLVKGDAVGPTLYYGAGAGSEPTASAVVADLVDVTRLHTADPHHRVPHLAFQPDQLADTPILPMEAVRTAYYLRLRAFDRPGVLADITRILADSSISIDAMVQKEPAEGEEQVDIILLTHVTLEKNVNAAIAKIEALDAVAGKVMRIRLEDLGAK”, the protein production entry is recorded as “not failed”.

With “MEEAKGPVKHVLLASFKDGVSPEKIEELIKGYANLVNLIEPMKAFHWGKDVSIENLHQGYTHIFESTFESKEAVAEYIAHPAHVEFATIFLGSLDKVLVIDYKPTSVSL”, the protein production entry is on record as “not failed”.

Take “MEAIDQLVGQWQKDGLSPSQVAEKFSKCVLYVTCEPCIMCASALSFLGIKEVYYGCPNDKFGGCGSILSLHLGSEEAQRGKGYKCRGGIMAEEAVSLFKCFYEQGNPNAPKPHRPVVQRERT”: the protein production entry was “failed”. As for “MIKILGHHISTLSITLALYETLIFMCVLYSFIFIMSFFFNIPVPEKLSMVILLALTATIAAGSLGLYNQRLFGDFKEFIWRIALTLPLILLAVLFVSFAYGEITATDQSPFYLAAAFGIPAALLLVVLGRGICFRIPGIKAFRRRILVLGTGEMADRLAALETSQPYRHYEIIGFVALGDDPAPLGEKWRVFDRNCIETRHDLLKICADHNINEVIFAASERRRANSSTFGLPVWDLLECRLMGIHVAEYASFWERETGRIDLDHLRPGWLIFSEGFRNSSRRMIAKRFFDVITALLLVILSLPVLVAAAIAVKLSSPGPVFYRQERVGVNGKPFNLIKFRSMPIDAEKNGPVWGTVKDKRATGVGSLLRRTRIDEIPQVFNVLRGDMSFIGPRPERPVFVEELSRELDFYGERHAVRPGISGWAQINYPYGASVADAKQKLSYDLYYIKNGSLFLDIIILFQTFRVVLWPEGSKEKAGAVVR”, the entry is “failed”; as for “MRLISKPVLCNYYVTYRCNATCGFCDIWEKPSPYVTPEAVEQNMRDLKKLGVKVIDFTGGEPLLHREMDTLLRIAKKYGMITTLTTNALLYPKWAERLKGLIDMLHFSLDSPDKAEHDTLRGVACFDFVLESIEKAKALG”, “failed”; as for “MSVETQRESLLNAPALLFMSAVVLIAFWILFPRQPAFRDPANLSAKDALSVAYLRVLVQSDPGNAPLRLSFVQVLTEAGMTDEAVLAMEPLQNAPESGLTYEIRLAELKLALQQLYRHPPRDVEASLRRRIGELVPLLLRLADNDKESNQVVLLAEQFGEPSVVAETFEQLAGMQNETRQTKSRWLAFAAKQRLAAAQPRAAAQNFCRAFTFERIARKKTELAKACLGAYLQAGVDREALKAAMQILSAYSSSNADAQLLLLAADVAQPMGDRDHALVWLEQASAHLPADQRLAERVVRLQVSMGLLSEGLARAPMLRASLIPGSERQRLLAHLYDWNGQPDEALALWLSFARHKADEEAETRAFALAQAKPDNEAIVQLLEAVMSRRKLTTTEADAYVKAGLAVAQPSRVEKQLRRHAERFGNPPPILNALVEVLVLQGKPDAALTLYEDMPEIQDGRQRLALARLYEEAGNTQKSFQLLLRDIDSPPPASAEEYWLLLAKVSTQLGQDAYAGQAYEKALALRSNDVEILENLQRLALRHHDEKKSERLARYGWERLKRIEDLQRLMRFSWKRRNWDELDQWLEVAEKLPSAAQARDYWYFQSMRRMAHGEQSAARGALQEILKLQAADPEVTEAMIWLLLAYEKIDRVLLDSVVAPYRAQTASQSTVNPALAEALAAAEQGLGRPVQAAAWFLRSLSTRAGDFLWILALADNMEWAGCPAHANYARFQALEMFASRQNSRIEVKYPSRLAEYFFGSKYLPPKREGTEDAKKQEELQSIRDQWGFGGKLDNADYFALRREVERLELSQWKDFAKAVRNRNEREVERQLALISDHLKRQPAAASHPDMLPLSIDDVDRANRWLAGEPEPNPSDLATELDICRETLTKIREFPVNSEPAKR”, “failed”. As to “MNGRRTIGEDGLVFGLVVIVALVAAVVVGTVLGHRYRVGPPVLLILSGSLLGLIPRFGDVQIDGEVVLLLFLPAILYWESMNTSFREIRWNLRVIVMFSIGLVIATAVAVSWTARALGMESHAAAVLGAVLSPTDAAAVAGLAKRLPRRALTVLRGESLINDGTALVLFAVTVAVAEGAAGIGPAALVGRFVVSYLGGIMAGLLVGGLVTLLRRRIDAPLEEGALSLLTPFAAFLLAQSLKCSGVVAVLVSALVLTYVGPTVIRARSRLQAHAFWDIATFLINGSLWVFVGVQIPGAIDHIAGEDGGLPRATVLALAVTGVVIATRIAWVQATTVLGHTVDRVLKKPTRHVGFRQRCVTSWAGFRGAVSLAAALAVPMTTNSGAPFPDRNLIIFVVSVVILVTVLVQGTSLPTVVRWARMPEDVAHANELQLARTRSAQAALDALPTVADELGVAPDLVKHLEKEYEERAVLVMADGADSATSDLAERNDLVRRVRLGVLQHQRQAVTTLRNQNLIDDIVLRELQAAMDLEEVQLLDPADAE”, the protein production entry was “failed”. Regarding “MLRVLSVGVAFILLGCQFFNKTTLHLKYKDYPKNSALKTAFTLTPPKIFFNARFVPPFYQKEFKKAITQQIAYFLKDKSAFILNVSGNVFFSFEENPKDLKAIKERLKKTIEPNADPKAVMRFLNLQASLILECVPQTTCPFDTLLIPTAFSVPVYYANRLGDNPSLFSQEDKTYHNALIKALNKAYYSLMEGLEKRLNAIKNAEWL”, the protein production result is on record as “failed”. Take “MRPLAAILALPILEIALFVTIGGAIGLLATLLIIFGTAALGVFLLRRQGVEMQAALQMPRRMDPLALMADGAAVSLAAALLILPGFFTDTVGLLLLIPPVRRALIRRLGRNVQVRSTTWRGPVRDDAPIEADYHEVEPVRDPLAPPSQPPGSSGWTRH”: the protein production entry is given as “failed”. Regarding “MWDMKFVDRIDEAARLKDALAREKSSLVVMYGRRRLGKSTLIKRVLSENDVYFLADRSEGQHQRALLAKVIAQVFPDFEKLSYPDWESMFRAVNYRTDKRFTLCLDEFPYLVEQSPELPSVLQKLVDEKQLKYNLVLCGSSQNMMYGLFLDSTAPLYGRADEIMRLTPIRLPYIQEALNLNAMNAIEEYAIWGGVPRYWELRENRISLDDAMWHNILSVNGTLYEEPVKLFQDDVKDIVKTSTIMSYIGTGANRLSEIAARCNEPATNLSRPLKKLVDLGFLEKDVPFGIDEKNAKKSLYKIADPFMAFYYQFVVPNRSFIELGRRLPIEQALTAHFSEYVSMQWEKLCRDAVTGNLVNGVVYGKAKRWWGSVLNEDKKPEQVEFDVMAESLDKKYLLVGECKWTTGENGKQLTAELLRKANLLPFAKNYTIVPVLFLKNAPKDDAGNAMLSENVVELMK”, the protein production entry was “failed”. The entry for “MMDYGIDIWGNENFIIKNGKVCINYEKKPAIIDIVKELRDDGYKGPLLLRFPHLIQKQIENIYGNFNKARKEFGYKGGFNAVYPLKVNQYPGFVKNLVKLGKDYNYGLEAGSKAELLLAMAYNNEGAPITVNGFKDRELINIGFIAAEMGHNITLTIEGLNELEAIIDIAKERFKPKPNIGLRVRLHSAGVGIWAKSGGINSKFGLTSTELIEAVNLLKENKLLEQFTMIHFHLGSQITEIHPLKKALNEAGNIYTELRKMGAKNLKAINLGGGLAVEYSQFKNEKSRNYTLREYANDVVFILKNIAEQKKDLEPDIFIESGRFVAANHAVLIAPVLELFSQEYAENKLILKKQNPKLIDELYDLYKSIKPSNALEYLHDSIDHLESILTLFDLGYVDLQDRSNAEILTHLITKKAILLLGDKQNPADLLAIQDEVQERYLVNFSLFQSMPDFWGLEQNFPIMPLDRLDEEPTRSASIWDITCDSDGEISYSKDKPLFLHDVDVEKENYFLGFFLVGAYQEVLGMKHNLFTHPTEAIISINEKGYEVEGIIEAQSILDTLEDLDYDIHAIMDILNERISNSKLVNDKQKKHILGELYLFLNDNGYLKSIGVLEHHHHHH” is “not failed”; for “PELKCPVIGCDGQGHISGKYTSHRTASGCPLAAKRQKENPLNGASLSWKLNKQELPHCPLPGCNGLGHVNNVFVTHRSLSGCPLNAQVIKKGKVS” it is “not failed”. On to “MSLSKKIAVIGECMIELSEKGADVKRGFGGDTLNTSVYIARQVDPAALTVHYVTALGTDSFSQQMLDAWHGENVDTSLTQRMENRLPGLYYIETDSTGERTFYYWRNEAAAKFWLASEQSAAICEELANFDYLYLSGISLAILSPTSREKLLSLLRECRAKGGKVIFDNNYRPRLWASKEETQQVYQQMLECTDIAFLTLDDEDALWGQQPVEDVIARTHNAGVKEVVVKRGADSCLVSIAGEALVDVPAVKLPKEKVIDTTAAGDSFSAGYLAVRLTGGSAENAAKRGHLTASTVIQYRGAIIPREAMPAEGHHHHHH”, for which the protein production entry is “not failed”. As for “MSSEAVDATTLVIIPTYNELENLPLIVDRVRTATPDVHVLIVDDNSPDGTGERADKLAADDDHIFVLHREGKGGLCAAYMAGFQWGLERDYQVLCEMDADGSHAPEQLHLLLAEITNGADLVIGSRYVPGGRVVNWPKNRWLLSKGGNVYISVALGAGLTDMTAGYRAFRREVLEALPLDELSNAGYIFQVEIAYRAVEAGFDVREVPITFTEREIGESKLDGSFVKDSLLEVTKWGLKHRGGQAKELSKEMVGLLNYEWKHFKKRNTWLLEHHHHHH”, the entry is “failed”; as for “MKTHFVKLLTQPESAWVQIRSEEQRKPWQYLPHLLLWALVPALCLLIGVTQVGWSLVDAERVRLSLASAMQLALLLYLTALLGTVLMGGFIRWMSRPFEARPTLNQCVGFAAYTATPYFIAGISGLYPSRWLAVAALLVASAYASYLLLVGLPKFMYLNQERGRLYAASVWGVGLLVLVTILVSMILFWFNVLAPQYLRPLAAL”, “failed”. As for “MVVSIITPLYKVEDFIARCADSLFRQSYTEIEYIFVDDCSSDRSVEVLLQVAERYPQLQQQIRILHHESNRGVAAARETGLAAATGEYVYWVDADDWIEPDAIEKMVVRSEQGQKDIIACGWYLCFRQNERRMPMPCYADAETALRGMLSGTMRWNLWLYMIKRDLYLMNDIHFMEGENVGEDMLVLIKLFSHAKSIGFVKDAFYHYVKQNENSLTRLSPEQQMKRQMRNLQAATDYLVTHFIGKYEKEINFFKLNAKMPLLISNDKNSYRTWTACFPEANKYIMANKRQTLRMRLVQLMAAKRQFWLVELYYQLVFKFVYGILYK”, the entry is “failed”.

For the origin of these results see a protein production outcome set (Wang et al. 2014).
